Paper PMC3741180, “A Novel High Throughput Biochemical Assay to Evaluate the HuR Protein-RNA Complex Formation” (PLoS ONE, 2013)

Tests used:
HuR/ELAVL1 = target: T1, HuR/ELAVL1 (Homo sapiens, UniProt Q15717); experiment: AlphaScreen ([…]) and REMSA ([…]) of rHuR-RNA complex formation; format: biochemical
T1 construct: full-length human HuR with C-terminal Myc-His tag (rHuR), purified from HEK293T cells

rHuR (HuR-Myc-His) [1] = target: T2, rHuR (HuR-Myc-His) (Homo sapiens, UniProt Q15717 1-326); experiment: AlphaScreen competition; versus 50 nM Bi-TNF, 1 nM rHuR; AlphaScreen: 25 mM HEPES pH 7.4, 100 mM NaCl, 0.1% BSA, room temperature; REMSA: 20 mM HEPES pH 7.5, 50 mM KCl, 0.5 ug BSA, 0.25% glycerol, room temperature, 6% native gel 0.5X TBE at 4 C; conditions: protein: recombinant; tags: C-terminal c-Myc and His6; single strand
rHuR (HuR-Myc-His) [2] = target: T2, rHuR (HuR-Myc-His); experiment: AlphaScreen saturation binding; AlphaScreen: 25 mM HEPES pH 7.4, 100 mM NaCl, 0.1% BSA, room temperature; REMSA: 20 mM HEPES pH 7.5, 50 mM KCl, 0.5 ug BSA, 0.25% glycerol, room temperature, 6% native gel 0.5X TBE at 4 C; conditions: protein: recombinant; tags: C-terminal c-Myc and His6; label: 5'-biotin; single strand
rHuR (HuR-Myc-His) [3] = target: T2, rHuR (HuR-Myc-His); experiment: AlphaScreen saturation binding; repeat alongside Bi-COX; AlphaScreen: 25 mM HEPES pH 7.4, 100 mM NaCl, 0.1% BSA, room temperature; REMSA: 20 mM HEPES pH 7.5, 50 mM KCl, 0.5 ug BSA, 0.25% glycerol, room temperature, 6% native gel 0.5X TBE at 4 C; conditions: protein: recombinant; tags: C-terminal c-Myc and His6; label: 5'-biotin; single strand
rTTP (His-Strep-TTP) = target: T3, rTTP (His-Strep-TTP) (Mus musculus, UniProt P22893 1-319); experiment: AlphaScreen competition; rTTP displacing 1 nM rHuR from 50 nM Bi-TNF; AlphaScreen: 25 mM HEPES pH 7.4, 100 mM NaCl, 0.1% BSA, room temperature; REMSA: 20 mM HEPES pH 7.5, 50 mM KCl, 0.5 ug BSA, 0.25% glycerol, room temperature, 6% native gel 0.5X TBE at 4 C; conditions: protein: recombinant; tags: His-Strep; label: 5'-biotin; single strand
T3 sequence: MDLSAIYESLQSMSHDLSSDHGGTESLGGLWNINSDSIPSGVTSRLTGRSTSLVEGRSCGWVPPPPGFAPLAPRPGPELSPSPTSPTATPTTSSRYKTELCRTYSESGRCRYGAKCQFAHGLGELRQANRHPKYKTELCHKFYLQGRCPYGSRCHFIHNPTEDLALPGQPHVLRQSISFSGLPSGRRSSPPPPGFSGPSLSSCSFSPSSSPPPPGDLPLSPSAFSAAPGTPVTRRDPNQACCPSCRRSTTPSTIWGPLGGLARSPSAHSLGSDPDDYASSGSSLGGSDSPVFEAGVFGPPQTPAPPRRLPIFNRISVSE

rHuR (HuR-Myc-His) [4] = target: T2, rHuR (HuR-Myc-His); experiment: AlphaScreen saturation binding; signal near background, probe 0-100 nM; AlphaScreen: 25 mM HEPES pH 7.4, 100 mM NaCl, 0.1% BSA, room temperature; REMSA: 20 mM HEPES pH 7.5, 50 mM KCl, 0.5 ug BSA, 0.25% glycerol, room temperature, 6% native gel 0.5X TBE at 4 C; conditions: protein: recombinant; tags: C-terminal c-Myc and His6; label: 5'-biotin; single strand

T2 sequence (Q15717 whole entry): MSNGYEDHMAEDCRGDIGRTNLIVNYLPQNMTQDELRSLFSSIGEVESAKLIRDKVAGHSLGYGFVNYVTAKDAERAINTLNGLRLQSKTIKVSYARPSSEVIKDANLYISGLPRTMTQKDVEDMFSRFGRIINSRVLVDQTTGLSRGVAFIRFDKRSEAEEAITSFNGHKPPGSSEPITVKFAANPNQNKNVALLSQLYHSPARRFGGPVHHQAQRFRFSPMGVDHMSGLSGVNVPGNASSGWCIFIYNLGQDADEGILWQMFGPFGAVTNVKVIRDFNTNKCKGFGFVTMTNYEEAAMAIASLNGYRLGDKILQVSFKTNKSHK
T1 sequence (Q15717 2-326): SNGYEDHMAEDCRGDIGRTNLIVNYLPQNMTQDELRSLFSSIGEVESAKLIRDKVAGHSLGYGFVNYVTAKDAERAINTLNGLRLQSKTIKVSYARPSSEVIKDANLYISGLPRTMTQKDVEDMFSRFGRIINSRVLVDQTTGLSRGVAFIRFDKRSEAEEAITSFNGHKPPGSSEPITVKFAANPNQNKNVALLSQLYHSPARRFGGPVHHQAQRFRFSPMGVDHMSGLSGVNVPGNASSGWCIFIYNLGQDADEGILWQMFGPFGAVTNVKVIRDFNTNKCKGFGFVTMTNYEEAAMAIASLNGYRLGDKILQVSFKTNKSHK

O=C1c2c(O)ccc(O)c2C(=O)c2c(NCCNCCO)ccc(NCCNCCO)c21 [compound 16, Mitoxantrone]
AlphaScreen (25 nM) and REMSA (0.5 μM) of rHuR-RNA complex formation (HuR/ELAVL1): Mitoxantrone revealed to be a compound interfering with rHuR binding to Bi-TNF in both of our in vitro assays

AUUAUUUAUUAUUUAUUUAUUAUUUA (ssRNA) [U-TNF]
Ki (rHuR (HuR-Myc-His) [1]): 4.49 ± 1.1 nM

AUUAUUUAUUAUUUAUUUAUUAUUUA (ssRNA) [Bi-TNF]
Kd (rHuR (HuR-Myc-His) [2]): 2.5 ± 0.6 nM
Kd (rHuR (HuR-Myc-His) [3]): 2.75 nM
Ki (rTTP (His-Strep-TTP)): 1.76 ± 0.41 pM

UAUUAAUUUAAUUAUUUAAUAAUAUUU (ssRNA) [Bi-COX]
Kd (rHuR (HuR-Myc-His) [2]): 4.58 ± 1.2 nM

ACCACCCACCACCCACCCACCACCCA (ssRNA) [Bi-TNFneg]
binding result (rHuR (HuR-Myc-His) [4]): no binding
